Measured values as given in article PMC3792076, “Elucidation of Substrate Specificity in Aspergillus nidulans UDP-Galactose-4-Epimerase” (PLoS ONE, 2013).
Where a chain is given by its changes, count along the chain named. Names and notes keep the numbering of the source.

B1: AnGALE (Aspergillus nidulans FGSC A4) (protein)
chain: MPSGSVLVTGGTGYIGSFTTLALLEAGYKVVVADNLYNSSAEALNRIELISGKKAEFAQLDVTDEAAFDKVFEAHPDIDSVIHFAALKAVGESGEKPLDYYHVNVYGTICLLRSMVRHNVTNIVFSSSATVYGDATRFPDMIPIPEHCPLGPTNPYGNTKFAIELAITDVINAQRNNAKKAGNETEAAKWNGALLRYFNPAGAHPSGIMGEDPQGVPYNLLPLLAQVATGKREKLLVFGDDYASHDGTAIRDYIHILDLADGHLKALNYLRANNPGVRAWNLGTGRGSTVYEMIRAFSKAVGRDLPYEVAPRRAGDVLNLTSNPTRANTELGWKAQRTLEQACEDLWLWTKNNPQGYRQQPPAELLEQLKK
notes: N-terminal His-TEV tag (p-HIS-TEV-GALE), not cleaved for crystallization; E. coli BL21-Gold; homodimer
B2: AnGALE (Aspergillus nidulans FGSC A4; L320Y) (protein)
chain: B1 chain with L320Y
notes: as for B1

Substrate: O=c1ccn([C@@H]2O[C@H](COP(=O)(O)OP(=O)(O)O[C@H]3O[C@H](CO)[C@H](O)[C@H](O)[C@H]3O)[C@@H](O)[C@H]2O)c(=O)[nH]1
Test: purified protein
Type: biochemical, Aspergillus nidulans
Conditions: 2 mM NAD+, 100 mM Tris-HCl pH 8.5, 25°C

| Protein | Km | kcat | kcat/Km |
| --- | --- | --- | --- |
| B1 | 110 ± 10 µM | 12.8 ± 0.6 s⁻¹ | 116000 ± 8100 M⁻¹ s⁻¹ |
| B2 | 60 ± 10 µM | 1.5 ± 0.1 s⁻¹ | 26800 ± 1900 M⁻¹ s⁻¹ |
